Fewer inactive variants are shown than the library holds.
How the values were obtained:
[1] = test system: biotinyl-Phe-oxazolone; assay: self-aminoacylation, catalytic enhancement (BFO) (fold over background); higher = more active; k-Seq, kA / k0A0; sequences stand for … in GGGAAUGGAUCCACAUCUACGAAUUC…UUCACUGCAGACUUGACGAAGCUG
Summary of the method: (§1)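 Catalytic enhancement equals the median kA over the uncatalyzed rate, the latter read from the low-activity peak of a bimodal Gaussian fit. Values of kA came from fitting each sequence's fraction reacted to a pseudo-first-order model, with 1000 bootstraps. Reacted RNA was captured with streptavidin and quantified by triplicate qPCR and Illumina sequencing after 90 minutes at room temperature with 2–1250 μM biotinyl-aminoacyl-oxazolone and 0.43 μM mutagenized RNA pools bearing a 21-nt variable region.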

[2] = test system: biotinyl-Ile-oxazolone; assay: self-aminoacylation, catalytic enhancement (BIO) (fold over background); higher = more active; k-Seq, kA / k0A0; sequences stand for … in GGGAAUGGAUCCACAUCUACGAAUUC…UUCACUGCAGACUUGACGAAGCUG
Summary of the method: as §1

[3] = test system: biotinyl-Met-oxazolone; assay: self-aminoacylation, catalytic enhancement (BMO) (fold over background); higher = more active; k-Seq, kA / k0A0; sequences stand for … in GGGAAUGGAUCCACAUCUACGAAUUC…UUCACUGCAGACUUGACGAAGCUG
Summary of the method: as §1

[4] = test system: biotinyl-Val-oxazolone; assay: self-aminoacylation, catalytic enhancement (BVO) (fold over background); higher = more active; k-Seq, kA / k0A0; sequences stand for … in GGGAAUGGAUCCACAUCUACGAAUUC…UUCACUGCAGACUUGACGAAGCUG
Summary of the method: as §1

[5] = test system: biotinyl-Leu-oxazolone; assay: self-aminoacylation, catalytic enhancement (BLO) (fold over background); higher = more active; k-Seq, kA / k0A0; sequences stand for … in GGGAAUGGAUCCACAUCUACGAAUUC…UUCACUGCAGACUUGACGAAGCUG
Summary of the method: as §1

[6] = test system: biotinyl-Trp-oxazolone; assay: self-aminoacylation, catalytic enhancement (BWO) (fold over background); higher = more active; k-Seq, kA / k0A0; sequences stand for … in GGGAAUGGAUCCACAUCUACGAAUUC…UUCACUGCAGACUUGACGAAGCUG
Summary of the method: as §1

| Sequence | self-aminoacylation [1] | self-aminoacylation [2] | self-aminoacylation [3] | self-aminoacylation [4] | self-aminoacylation [5] | self-aminoacylation [6] |
| --- | --- | --- | --- | --- | --- | --- |
| GUUACCCUGGUCAGCGAGUGA [Fam2.1 aminoacylation ribozyme variant] | 42.9 | 4.8 | 6.72 | 4.05 | 6.76 | 7.95 |
| GUUACCCUGGUCAUCAAGUGA [Fam2.1 aminoacylation ribozyme variant] | 11 | 2.37 | 3.81 | 2.08 | 3.12 | 4.39 |
| GUUACCCUGGUCAUCGAGUAA [Fam2.1 aminoacylation ribozyme variant] | 93.6 | 6.86 | 22.6 | 7.98 | 21.8 | 18.7 |
| GUUACCCUGGUCAUCGAGUCA [Fam2.1 aminoacylation ribozyme variant] | 1.64 | 0.936 | 1.26 | 1.46 | 1.28 | 1.1 |
| GUUACCCUGGUCAUCGAGUGA [Fam2.1 aminoacylation ribozyme variant] | 747 | 35.2 | 99 | 38.3 | 100 | 101 |
| GUUACCCUGGUCAUCGAGUGC [Fam2.1 aminoacylation ribozyme variant] | 33.8 | 4.28 | 12.9 | 4.94 | 13 | 9.64 |
| GUUACCCUGGUCAUCGAGUUA [Fam2.1 aminoacylation ribozyme variant] | 23.1 | 4.48 | 12 | 5.21 | 11.1 | 10 |
| GUUACCCUGGUCAUCGCGUGA [Fam2.1 aminoacylation ribozyme variant] | 212 | 11.2 | 25.3 | 14.8 | 25.2 | 26.8 |
| GUUACCCUGGUCAUCGGGUGA [Fam2.1 aminoacylation ribozyme variant] | 503 | 30.9 | 89.7 | 36.7 | 92.1 | 90.7 |
| GUUACCCUGGUCAUGGAGUGA [Fam2.1 aminoacylation ribozyme variant] | 36.2 | 3.51 | 4.85 | 3.36 | 5.89 | 7.15 |
| GUUACCCUGGUCGUCGAGUGA [Fam2.1 aminoacylation ribozyme variant] | 9.01 | 1.5 | 2.13 | 1.6 | 1.9 | 2.24 |
| GUUACCCUGGUCUUCGAGUGA [Fam2.1 aminoacylation ribozyme variant] | 50.7 | 4.45 | 8.47 | 5.01 | 8.79 | 10.1 |
| GUUACCCUGGUGAUCGAGUGA [Fam2.1 aminoacylation ribozyme variant] | 34.8 | 3.37 | 6.75 | 3.33 | 7.43 | 8.86 |
| GUUACGCUGGUCAUCGAGUGA [Fam2.1 aminoacylation ribozyme variant] | 59.2 | 5.57 | 7.2 | 4.86 | 8.34 | 10.6 |
| GUUCAACUAGGUCAUCGGGUG [Fam2.2 aminoacylation ribozyme variant] | 42.6 | 4.28 | 5.04 | 4.16 | 6.94 | 6.75 |
| GUUCACCUAAGUCAUCGGGUG [Fam2.2 aminoacylation ribozyme variant] | 51.4 | 5.38 | 7.53 | 5.4 | 9.78 | 7.87 |
| GUUCACCUAGGACAUCGGGUG [Fam2.2 aminoacylation ribozyme variant] | 16.3 | 3.61 | 3.24 | 3.56 | 4.61 | 5.67 |
| GUUCACCUAGGUCAUCGGUUG [Fam2.2 aminoacylation ribozyme variant] | 2.93 | 1.17 | 1.09 | 1.11 | 1.38 | 1.41 |
| GUUCACCUAGGUCUUCGGGUG [Fam2.2 aminoacylation ribozyme variant] | 33.8 | 3.83 | 4.89 | 4.05 | 5.73 | 5.22 |
| GUUCACCUAGGUUAUCGGGUG [Fam2.2 aminoacylation ribozyme variant] | 34 | 3.41 | 4.84 | 3.44 | 4.08 | 5.35 |
| GUUCACCUAGUUCAUCGGGUG [Fam2.2 aminoacylation ribozyme variant] | 15.4 | 2.79 | 2.66 | 2.9 | 2.37 | 4.15 |
| GUUCACCUCGGUCAUCGGGUG [Fam2.2 aminoacylation ribozyme variant] | 28.6 | 3.61 | 4.1 | 4.29 | 4.52 | 3.77 |

| Sequence | self-aminoacylation [1] | self-aminoacylation [2] | self-aminoacylation [3] | self-aminoacylation [4] | self-aminoacylation [5] | self-aminoacylation [6] |
| --- | --- | --- | --- | --- | --- | --- |
| GUUCACCUGGGUCAUCGGGUG [Fam2.2 aminoacylation ribozyme variant] | 39.4 | 4.47 | 5.48 | 5.58 | 5.35 | 8.32 |
| GUUCCCCUGGUCAUCGAGUGA [Fam2.1 aminoacylation ribozyme variant] | 43.4 | 3.35 | 5.84 | 3.82 | 6.48 | 7.5 |
| GUUGACCUAGGUCAUCGGGUG [Fam2.2 aminoacylation ribozyme variant] | 20 | 4.11 | 3.52 | 3.67 | 5.05 | 5.59 |
| GUUUACCUAGGUCAUCGGGUG [Fam2.2 aminoacylation ribozyme variant] | 201 | 16.2 | 29 | 14.1 | 39.7 | 23.9 |
| UAGUUAGCUAAUAGUCGCAAG [Fam3.1 aminoacylation ribozyme variant] | 2.37 | 1.72 | 2.06 | 1.52 | 1.8 | 1.11 |
| UAGUUUACUAAUAGUCGCAAG [Fam3.1 aminoacylation ribozyme variant] | 2.86 | 1.45 | 1.41 | 1.48 | 1.36 | 1.65 |
| UAGUUUGCCAAUAGUCGCAAG [Fam3.1 aminoacylation ribozyme variant] | 2.96 | 1.61 | 1.77 | 1.61 | 1.87 | 1.99 |
| UAGUUUGCUAAGAGUCGCAAG [Fam3.1 aminoacylation ribozyme variant] | 1.77 | 1.12 | 1.1 | 1.18 | 0.952 | 1.22 |
| UAGUUUGCUAAUAAUCGCAAG [Fam3.1 aminoacylation ribozyme variant] | 1.77 | 1.11 | 1.04 | 1.12 | 0.887 | 0.875 |
| UAGUUUGCUAAUAGUCACAAG [Fam3.1 aminoacylation ribozyme variant] | 5.1 | 1.41 | 1.51 | 1.31 | 1.76 | 2.38 |
| UAGUUUGCUAAUCGUCGCAAG [Fam3.1 aminoacylation ribozyme variant] | 1.65 | 1.62 | 1.51 | 1.31 | 1.11 | 1.59 |
| UAGUUUGCUAGUAGUCGCAAG [Fam3.1 aminoacylation ribozyme variant] | 1.53 | 1.09 | 1.17 | 0.974 | 1.1 | 0.854 |
| UCACAAUUCAAGCAAUCGGUC [Fam1B.1 aminoacylation ribozyme variant] | 1.8 | 1.04 | 0.989 | 0.986 | 0.949 | 1.39 |
| UCACACUUCAAACAAUCGGUC [Fam1B.1 aminoacylation ribozyme variant] | 89.1 | 1.34 | 1.66 | 1.55 | 2.25 | 42.8 |
| UCACACUUCAACCAAUCGGUC [Fam1B.1 aminoacylation ribozyme variant] | 54.2 | 1.45 | 1.71 | 1.75 | 2.44 | 37.1 |
| UCACACUUCAAGCAAUCGGAC [Fam1B.1 aminoacylation ribozyme variant] | 1.56 | 0.844 | 0.732 | 0.821 | 0.598 | 0.994 |
| UCACACUUCAAUCAAUCGGUC [Fam1B.1 aminoacylation ribozyme variant] | 35.5 | 1.11 | 1.12 | 1.08 | 1.49 | 21.3 |
| UCACACUUCCAGCAAUCGGUC [Fam1B.1 aminoacylation ribozyme variant] | 1.01 | 1.19 | 1.14 | 1.24 | 1.02 | 0.854 |
| UCACACUUGAAGCAAUCGGUC [Fam1B.1 aminoacylation ribozyme variant] | 0.541 | 0.744 | 0.762 | 0.774 | 0.751 | 0.486 |
| UCACACUUUAAGCAAUCGGUC [Fam1B.1 aminoacylation ribozyme variant] | 0.841 | 0.869 | 0.694 | 0.857 | 0.791 | 0.764 |
| UCACAGUUCAAGCAAUCGGUC [Fam1B.1 aminoacylation ribozyme variant] | 4.16 | 1.05 | 1.01 | 0.999 | 1.16 | 3.12 |
